B1: VTI1B (parent)
chain: NKLLLSIIILLELAILGGLVYYKF

Variants of: B1
Test: protein stability index of a GFP-peptide fusion (GPS, HEK-293T) (PSI 1-6); higher = more stable
Settings: c terminus: a fixed tail appended
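Also: lentivirally expressed fusions sorted by FACS into six bins by GFP to DsRed ratio, PSI derived from sequencing read proportions per bin multiplied by bin number.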

Row | Variant | protein stability index
1 | NKLLLSIIILWELAILGGLVYYKF [L11W] | 3.2
2 | NKLLLSIIILMELAILGGLVYYKF [L11M] | 3.36
3 | NKLLLSIIILQELAILGGLVYYKF [L11Q] | 3.26
4 | NKLLLSIIILFELAILGGLVYYKF [L11F] | 2.39
5 | NKLLLSIIILGELAILGGLVYYKF [L11G] | 2.94
6 | NKLLLSIIILRELAILGGLVYYKF [L11R] | 3.68
7 | NKLLLSIIILTELAILGGLVYYKF [L11T] | 2.53
8 | NKLLLSIIILVELAILGGLVYYKF [L11V] | 1.49
9 | NKLLLSIIILHELAILGGLVYYKF [L11H] | 4.16
10 | NKLLLSIIILCELAILGGLVYYKF [L11C] | 2.36
11 | NKLLLSIIILSELAILGGLVYYKF [L11S] | 3.88
12 | NKLLLSIIILEELAILGGLVYYKF [L11E] | 3.84
13 | NKLLLSIIILPELAILGGLVYYKF [L11P] | 2.43
14 | NKLLLSIIILDELAILGGLVYYKF [L11D] | 3.12
15 | NKLLLSIIILNELAILGGLVYYKF [L11N] | 3.97
16 | NKLLLSIIILKELAILGGLVYYKF [L11K] | 2.59
17 | NKLLLSIIILLELCILGGLVYYKF [A14C] | 2.98
18 | NKLLLSIIILLELIILGGLVYYKF [A14I] | 1.84
19 | NKLLLSIIILLELPILGGLVYYKF [A14P] | 2.64
20 | NKLLLSIIILLELEILGGLVYYKF [A14E] | 3.15
21 | NKLLLSIIILLELFILGGLVYYKF [A14F] | 3.19
22 | NKLLLSIIILLELLILGGLVYYKF [A14L] | 3.61
23 | NKLLLSIIILLELHILGGLVYYKF [A14H] | 3.82
24 | NKLLLSIIILLELMILGGLVYYKF [A14M] | 2.43

Row | Variant | protein stability index
25 | NKLLLSIIILLELNILGGLVYYKF [A14N] | 2.81
26 | NKLLLSIIILLELKILGGLVYYKF [A14K] | 2.48
27 | NKLLLSIIILLELGILGGLVYYKF [A14G] | 3.17
28 | NKLLLSIIINLELAILGGLVYYKF [L10N] | 2.09
29 | NKLLLSIIIHLELAILGGLVYYKF [L10H] | 3.04
30 | NKLLLSIIISLELAILGGLVYYKF [L10S] | 4.51
31 | NKLLLSIIIFLELAILGGLVYYKF [L10F] | 2.6
32 | NKLLLSIIIGLELAILGGLVYYKF [L10G] | 2.46
33 | NKLLLSIIITLELAILGGLVYYKF [L10T] | 1.93
34 | NKLLLSIIIPLELAILGGLVYYKF [L10P] | 3.62
35 | NKLLLSIIIRLELAILGGLVYYKF [L10R] | 2.63
36 | NKLLLSIIIVLELAILGGLVYYKF [L10V] | 3.92
37 | NKLLLSIIIDLELAILGGLVYYKF [L10D] | 2.71
38 | NKLLLSIIIELELAILGGLVYYKF [L10E] | 3.16
39 | NKLLLSIIIKLELAILGGLVYYKF [L10K] | 3.36
40 | NKLLLSIIIALELAILGGLVYYKF [L10A] | 2.44
41 | NKLLLSIIIILELAILGGLVYYKF [L10I] | 2.55
42 | NKLLLSIIIYLELAILGGLVYYKF [L10Y] | 2.8
43 | NKLLLSIIICLELAILGGLVYYKF [L10C] | 3.11
44 | NKLLLSIIIQLELAILGGLVYYKF [L10Q] | 1.98
45 | NKLLLSIIIWLELAILGGLVYYKF [L10W] | 3.4
46 | NKLLLSIIIMLELAILGGLVYYKF [L10M] | 2.86
47 | NKLLLSIIILLESAILGGLVYYKF [L13S] | 3.71
48 | NKLLLSIIILLENAILGGLVYYKF [L13N] | 2.58

Row | Variant | protein stability index
49 | NKLLLSIIILLEWAILGGLVYYKF [L13W] | 3.72
50 | NKLLLSIIILLEEAILGGLVYYKF [L13E] | 2.44
51 | NKLLLSIIILLEYAILGGLVYYKF [L13Y] | 2.83
52 | NKLLLSIIILLEMAILGGLVYYKF [L13M] | 3.13
53 | NKLLLSIIILLERAILGGLVYYKF [L13R] | 3.24
54 | NKLLLSIIILLETAILGGLVYYKF [L13T] | 3.42
55 | NKLLLSIIILLEAAILGGLVYYKF [L13A] | 2.4
56 | NKLLLSIIILLEGAILGGLVYYKF [L13G] | 3.93
57 | NKLLLSIIILLEIAILGGLVYYKF [L13I] | 3.27
58 | NKLLLSIIILLEHAILGGLVYYKF [L13H] | 3.39
59 | NKLLLSIIILLECAILGGLVYYKF [L13C] | 1.85
60 | NKLLLSIIILLEDAILGGLVYYKF [L13D] | 2.7
61 | NKLLLSIIILLEPAILGGLVYYKF [L13P] | 3.15
62 | NKLLLSIIILLEVAILGGLVYYKF [L13V] | 1.79
63 | NKLLLSIIILLEFAILGGLVYYKF [L13F] | 3.1
64 | NKLLLSIIILLEQAILGGLVYYKF [L13Q] | 2.92
65 | NKLLLSIIVLLELAILGGLVYYKF [I9V] | 3.42
66 | NKLLLSIIQLLELAILGGLVYYKF [I9Q] | 3.18
67 | NKLLLSIIRLLELAILGGLVYYKF [I9R] | 3.19
68 | NKLLLSIIMLLELAILGGLVYYKF [I9M] | 3.54
69 | NKLLLSIINLLELAILGGLVYYKF [I9N] | 3.49
70 | NKLLLSIIWLLELAILGGLVYYKF [I9W] | 1.51
71 | NKLLLSIISLLELAILGGLVYYKF [I9S] | 4.04
72 | NKLLLSIIYLLELAILGGLVYYKF [I9Y] | 2.38

Row | Variant | protein stability index
73 | NKLLLSIITLLELAILGGLVYYKF [I9T] | 2.58
74 | NKLLLSIIPLLELAILGGLVYYKF [I9P] | 3.12
75 | NKLLLSIILLLELAILGGLVYYKF [I9L] | 2.16
76 | NKLLLSIIILLLLAILGGLVYYKF [E12L] | 2.33
77 | NKLLLSIIILLHLAILGGLVYYKF [E12H] | 2.64
78 | NKLLLSIIILLTLAILGGLVYYKF [E12T] | 2.87
79 | NKLLLSIIILLPLAILGGLVYYKF [E12P] | 2.64
80 | NKLLLSIIILLKLAILGGLVYYKF [E12K] | 2.66
81 | NKLLLSIIILLILAILGGLVYYKF [E12I] | 2.73
82 | NKLLLSIIILLMLAILGGLVYYKF [E12M] | 2.4
83 | NKLLLSIIILLGLAILGGLVYYKF [E12G] | 1.55
84 | NKLLLSIIILLALAILGGLVYYKF [E12A] | 2.13
85 | NKLLLSIIILLDLAILGGLVYYKF [E12D] | 2.99
86 | NKLLLSIIILLCLAILGGLVYYKF [E12C] | 2.57
87 | NKLLLSIIILLWLAILGGLVYYKF [E12W] | 1.82
88 | NKLLLSIIILLVLAILGGLVYYKF [E12V] | 2.85
89 | NKLLLSIIILLQLAILGGLVYYKF [E12Q] | 3.45
90 | NKLLLSIIILLSLAILGGLVYYKF [E12S] | 2.68
91 | NKLLLSIIILLYLAILGGLVYYKF [E12Y] | 2.01
92 | NKLLLSIIILLNLAILGGLVYYKF [E12N] | 1.44
93 | NKLLLSIIILLFLAILGGLVYYKF [E12F] | 2.17
94 | NKLLLSIIILLRLAILGGLVYYKF [E12R] | 2.18

From the supplement of paper PMC10567573
